Substrate in data set [1]: NCCc1c[nH]c2ccccc12
The experiment in a line: colorimetric assay of CoASH release, non-linear regression. It is filed as biochemical, Sparus aurata. The following applies: near-saturating AcCoA; apparent Km.

Substrate in data set [2]: NCCc1c[nH]c2ccc(O)cc12
Described as above. The format is biochemical, Sparus aurata. The settings on record: near-saturating AcCoA; apparent Km.

The results in this text go back to publication PMC3111191, “Molecular Evolution of Multiple Arylalkylamine N-Acetyltransferase (AANAT) in Fish” (Marine Drugs, 2011).

B1: AANAT2 (Sparus aurata) (protein)
chain: MTQQVSGSPFFKPFFLKTPVSLLRQRRHTLPASEFRNLTPQDAISVFEIEREAFVSVSGECPLTLDEVLNFLGQCPELSLGWFEEGQLVAFIIGSGWGKERLSQEAMTQHVPDSPAVHIHVLSVHRHCRQQGKGSILLWRFLQYLRCIPGLRRALLICEEYLVPFYQKAGFKEKGPSAISISNMQFQEMEYTIGGQAYTRRNSGC
The term Km denotes the substrate concentration at which the rate is half of its maximum. With B1, the Km was 2000 µM in data set [1] and 2200 µM in data set [2].

B2: AANAT2 (Sparus aurata; G73T/L69R/N70H/Q74L) (protein)
chain: MTQQVSGSPFFKPFFLKTPVSLLRQRRHTLPASEFRNLTPQDAISVFEIEREAFVSVSGECPLTLDEVRHFLTLCPELSLGWFEEGQLVAFIIGSGWGKERLSQEAMTQHVPDSPAVHIHVLSVHRHCRQQGKGSILLWRFLQYLRCIPGLRRALLICEEYLVPFYQKAGFKEKGPSAISISNMQFQEMEYTIGGQAYTRRNSGC
On to B2, for which the Michaelis constant (Km) in data set [1] was 1200 µM; in data set [2], 880 µM.

B3: AANAT2 (Sparus aurata; S123A) (protein)
chain: MTQQVSGSPFFKPFFLKTPVSLLRQRRHTLPASEFRNLTPQDAISVFEIEREAFVSVSGECPLTLDEVLNFLGQCPELSLGWFEEGQLVAFIIGSGWGKERLSQEAMTQHVPDSPAVHIHVLAVHRHCRQQGKGSILLWRFLQYLRCIPGLRRALLICEEYLVPFYQKAGFKEKGPSAISISNMQFQEMEYTIGGQAYTRRNSGC
For the protein B3, the Km in data set [1] and in data set [2] was 650 µM throughout.

B4: AANAT2 (Sparus aurata; I157M) (protein)
chain: MTQQVSGSPFFKPFFLKTPVSLLRQRRHTLPASEFRNLTPQDAISVFEIEREAFVSVSGECPLTLDEVLNFLGQCPELSLGWFEEGQLVAFIIGSGWGKERLSQEAMTQHVPDSPAVHIHVLSVHRHCRQQGKGSILLWRFLQYLRCIPGLRRALLMCEEYLVPFYQKAGFKEKGPSAISISNMQFQEMEYTIGGQAYTRRNSGC
As for B4, the Michaelis-Menten constant (Km) came out at 900 µM in data set [1] and 940 µM in data set [2].
